Laboratory results as given in paper PMC3338918.

Legend:
human VEGFR1-hFc (human) [1] = target: human VEGFR1-hFc (human) (UniProt P17948)
human VEGFR2-hFc (human) = human VEGFR2-hFc (human) (UniProt P35968); experiment: SPR; Biacore 3000, CM5 chip, 25°C, HBS-T (10 mM Hepes, 150 mM NaCl, 3.4 mM EDTA, 0.05% polysorbate 20, pH 7.4); VEGF Trap or receptor-Fc captured at low density on amine-coupled Protein A, ligands injected (1.0–0.062 nM VEGF-A, 2.5–0.156 nM VEGF-B(10-108), 5.0–0.078 nM PlGF); kd of VEGF-A ligands by the 'fixed kd' procedure on a Biacore 2000 (~2–3 h); KD = kd/ka
human VEGFR1-hFc (human) [2] = target: human VEGFR1-hFc (human) (UniProt P17948); experiment: as above
[3] = target: VEGF Trap (aflibercept) (human); experiment: as above
[4] = target: VEGF Trap (aflibercept) (human); experiment: KinExA solution equilibrium assay; KinExA 3000, room temperature (25°C); VEGF Trap (1–50 pM) equilibrated 10–96 h with varying ligand; unbound inhibitor captured on VEGF-A165-coupled Azlactone beads and detected with Cy5 anti-human IgG; one-site homogeneous binding model
human PlGF-2 (human) [5] = target: T1, human PlGF-2 (human) (UniProt P49763)
T1 sequence: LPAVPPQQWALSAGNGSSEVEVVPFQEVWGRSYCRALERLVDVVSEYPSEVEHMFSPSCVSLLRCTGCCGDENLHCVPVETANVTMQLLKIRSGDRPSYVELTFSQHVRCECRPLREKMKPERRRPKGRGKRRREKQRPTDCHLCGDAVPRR

murine PlGF-2 (mouse) [6] = target: T2, murine PlGF-2 (mouse) (UniProt P49764)
T2 sequence: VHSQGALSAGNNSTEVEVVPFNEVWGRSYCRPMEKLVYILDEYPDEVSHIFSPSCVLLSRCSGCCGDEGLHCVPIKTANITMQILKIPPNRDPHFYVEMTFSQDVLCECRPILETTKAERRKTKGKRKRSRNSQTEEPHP

human VEGF-A165 (human) [7] = target: human VEGF-A165 (human)
human PlGF-2 (human) [8] = target: T1, human PlGF-2 (human); remark: listed apart in the source
murine PlGF-2 (mouse) [9] = target: T2, murine PlGF-2 (mouse); remark: listed apart in the source
human VEGF-A165 (human) [10] = target: human VEGF-A165 (human); remark: listed apart in the source

human VEGFR1-hFc (human), sequence (P17948 27-758): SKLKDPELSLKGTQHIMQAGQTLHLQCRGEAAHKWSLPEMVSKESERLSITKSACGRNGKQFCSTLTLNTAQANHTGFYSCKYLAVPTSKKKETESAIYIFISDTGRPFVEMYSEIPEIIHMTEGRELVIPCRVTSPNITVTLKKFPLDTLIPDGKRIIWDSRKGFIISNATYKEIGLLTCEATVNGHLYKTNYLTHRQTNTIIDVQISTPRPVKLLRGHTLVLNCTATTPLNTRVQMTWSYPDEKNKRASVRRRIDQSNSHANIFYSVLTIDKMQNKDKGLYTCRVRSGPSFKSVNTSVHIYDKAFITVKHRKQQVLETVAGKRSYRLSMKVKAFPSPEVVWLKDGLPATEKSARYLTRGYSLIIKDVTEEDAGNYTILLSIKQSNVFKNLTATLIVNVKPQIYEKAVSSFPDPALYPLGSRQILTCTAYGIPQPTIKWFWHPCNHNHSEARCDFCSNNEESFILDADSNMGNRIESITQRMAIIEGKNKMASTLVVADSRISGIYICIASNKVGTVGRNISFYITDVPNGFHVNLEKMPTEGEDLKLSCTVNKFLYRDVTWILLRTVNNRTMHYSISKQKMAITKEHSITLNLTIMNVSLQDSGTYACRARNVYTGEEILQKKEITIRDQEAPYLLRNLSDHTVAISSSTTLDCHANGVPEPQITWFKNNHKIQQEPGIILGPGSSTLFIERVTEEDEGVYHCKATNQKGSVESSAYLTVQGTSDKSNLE
human VEGFR2-hFc (human), sequence (P35968 20-764): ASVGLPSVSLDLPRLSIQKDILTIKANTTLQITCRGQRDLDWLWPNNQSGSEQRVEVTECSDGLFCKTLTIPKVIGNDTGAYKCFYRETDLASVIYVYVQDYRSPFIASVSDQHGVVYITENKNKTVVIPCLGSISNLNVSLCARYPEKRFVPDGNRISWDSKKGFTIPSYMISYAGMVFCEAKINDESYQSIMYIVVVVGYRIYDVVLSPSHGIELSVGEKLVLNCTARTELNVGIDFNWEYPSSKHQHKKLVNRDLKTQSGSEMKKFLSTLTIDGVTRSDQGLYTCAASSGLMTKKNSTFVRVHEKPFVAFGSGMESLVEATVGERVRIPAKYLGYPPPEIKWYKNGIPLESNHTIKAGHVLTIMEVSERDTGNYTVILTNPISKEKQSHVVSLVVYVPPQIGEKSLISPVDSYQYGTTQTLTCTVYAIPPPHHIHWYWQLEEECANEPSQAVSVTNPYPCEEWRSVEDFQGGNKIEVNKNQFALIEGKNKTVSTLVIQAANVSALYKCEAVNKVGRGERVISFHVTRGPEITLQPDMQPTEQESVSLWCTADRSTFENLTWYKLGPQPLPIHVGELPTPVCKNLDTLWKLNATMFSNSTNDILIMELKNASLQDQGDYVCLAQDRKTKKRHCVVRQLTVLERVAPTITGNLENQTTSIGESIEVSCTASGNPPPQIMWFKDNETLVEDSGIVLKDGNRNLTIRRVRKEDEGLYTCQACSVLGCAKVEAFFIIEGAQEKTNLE
VEGF Trap (aflibercept) (Fc fusion), sequence (chain): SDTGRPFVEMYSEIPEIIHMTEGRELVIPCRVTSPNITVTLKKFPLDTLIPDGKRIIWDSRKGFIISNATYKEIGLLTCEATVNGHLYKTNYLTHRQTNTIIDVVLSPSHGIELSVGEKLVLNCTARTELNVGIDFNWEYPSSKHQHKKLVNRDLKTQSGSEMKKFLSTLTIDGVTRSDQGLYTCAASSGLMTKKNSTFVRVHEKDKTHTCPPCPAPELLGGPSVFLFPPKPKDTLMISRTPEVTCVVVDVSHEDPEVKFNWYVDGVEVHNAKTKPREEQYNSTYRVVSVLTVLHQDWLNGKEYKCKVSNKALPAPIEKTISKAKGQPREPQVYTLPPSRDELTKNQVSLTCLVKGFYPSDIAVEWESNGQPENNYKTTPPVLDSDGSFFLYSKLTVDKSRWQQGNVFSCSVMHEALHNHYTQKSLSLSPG

Substance | EC50 of luciferase activation in HEK293/VEGFR1 cells (dose response, 0.022 pM to 4.0 nM) (human VEGFR1-hFc (human) [1]) | Kd (human VEGFR2-hFc (human)) | koff (human VEGFR2-hFc (human)) | kon (human VEGFR2-hFc (human)) | Kd (human VEGFR1-hFc (human) [2]) | koff (human VEGFR1-hFc (human) [2]) | kon (human VEGFR1-hFc (human) [2]) | Kd [3] | koff [3] | kon [3] | Kd [4] | block of HUVEC migration induced by human PlGF-2 (7.1 nM) by a 100-fold excess of VEGF Trap (modified Boyden chamber) (human PlGF-2 (human) [5]) | block of HUVEC migration induced by mouse PlGF-2 (3.5 nM) by a 100-fold excess of VEGF Trap (modified Boyden chamber) (murine PlGF-2 (mouse) [6]) | IC50 of blocking luciferase activity induced by 20 pM hVEGF-A165 in the HEK293/VEGFR1 reporter cell line (blocks VEGF-A165 with VEGFR1) (human VEGF-A165 (human) [7]) | IC50 of blocking luciferase activity induced by 40 pM hPlGF-2 in the HEK293/VEGFR1 reporter cell line (blocks hPlGF-2 with VEGFR1) (human PlGF-2 (human) [8]) | IC50 of blocking luciferase activity induced by 20 pM mPlGF-2 in the HEK293/VEGFR1 reporter cell line (blocks mPlGF-2 with VEGFR1) (murine PlGF-2 (mouse) [9]) | IC50 of blocking luciferase activity induced by 20 pM hVEGF-A121 in the HEK293/VEGFR1 reporter cell line (blocks VEGF-A121 with VEGFR1) (human VEGF-A121 (human)) | reduction of HUVEC migration induced by 130 pM VEGF-A165 (modified Boyden chamber; inhibitor 0.013–13 nM), at a 1:1 molar ratio of VEGF Trap and VEGF-A165 (human VEGF-A165 (human) [10])
human VEGF-A165 (ligand) | 17 pM | 88.8 pM | 0.00135 s⁻¹ | 1.52e+07 M⁻¹ s⁻¹ | 9.33 pM | 0.00028 s⁻¹ | 3e+07 M⁻¹ s⁻¹ | 0.49 pM | 2.01e-05 s⁻¹ | 4.1e+07 M⁻¹ s⁻¹ | 0.66 pM | – | – | – | – | – | – | –
VEGF Trap (aflibercept) (Fc fusion) | – | – | – | – | – | – | – | – | – | – | – | 80% | 80% | 16 pM | 2890 pM | 104 pM | 15 pM | 90%
human VEGF-B(10-108) (domain or fragment) | – | – | – | – | – | – | – | 1.92 pM | 6.74e-05 s⁻¹ | 3.52e+07 M⁻¹ s⁻¹ | 17.5 pM | – | – | – | – | – | – | –
human VEGF-A121 (ligand) | 13 pM | – | – | – | – | – | – | 0.36 pM | 1.35e-05 s⁻¹ | 3.75e+07 M⁻¹ s⁻¹ | 0.18 pM | – | – | – | – | – | – | –
